The values below come from patent US20260250362A1 (published 2026).

Like-named read-outs stand apart in the source and are kept apart here.

Test [1] has as its target T1, recombinant ANDV Gn^H/Gc heterodimer (Andes virus (ANDV)). Nature of the test: BLI.
The target of test [2] is PUUV GnH/Gc. Nature of the test: BLI.
The target in test [3] is PUUV GnH/Gc. The test can be described thus: BLI. This is another data set of the same source.
Test [4] concerns the target PUUV (Puumala virus (PUUV)). Nature of the test: ELISA.
The target in test [5] is T1, recombinant ANDV Gn^H/Gc heterodimer. Nature of the test: BLI. The source holds these as a separate data set. (Biolayer interferometry detects binding as a change in optical thickness at a sensor tip.)

B1: ADI-42898 Fab (Fab, V domains shown)
VH: QVQLVESGGGVVQPGRSLRLSCAASGFTFSSYAMHWVRQAPGKGLEWVAVTWFDVSKKDYADSVKGRFTISRDNSKNTLYLQMNSLRAEDTAVYYCARNLIRYSGSYFPVHGMDVWGQGTTVTVSS
VL: DIVMTQSPLSLPVTPGEPASISCRSSQSLLHTYGYNSLDWYLQRPGQSPQLLISLGSYRASGVPDRFSGSGSGTDFTLKISRVEAEDVGVYYCMQALHPFTFGGGTKVEIK
Consider B1, for which the values for the Kd in test [1] and in test [2] were 19.6 µM and 1.9 nM, respectively.

B2: ADI-42898 IgG (antibody, V domains shown)
VH: B1 VH
VL: B1 VL
For the molecule B2, the affinity in test [3], expressed as Kd, was 1.5 nM.

B3: IgG (antibody, V domains shown)
VH: B1 VH
VL: B1 VL
Turning to B3, the EC50 (as a rule, the concentration needed to bring the measured effect to its halfway point) in test [4] is less than 0.1 nM.

B4: ADI-42898 (antibody, V domains shown)
VH: B1 VH
VL: B1 VL
For the molecule B4, in test [5], the Kd (as a rule, the constant that tells how readily two partners part at equilibrium) is 2.8 nM.
